# In the DeepSol protein solubility set:
# Experiment: soluble on expression in E. coli; label from the status in PepcDB or PDB records
row,Sequence,soluble on expression in E. coli
1,MGSDKIHHHHHHAELAELFEVSVRTIYRDIETINRAGIPIVTSQGSGGGIGIMETYRLEREWLKEEELFAIASALQSVSSMYEPVSHSTAYQKIKHLIPEQSTQAFKHQTEKWFIDMTAWGHTEDQKTLREKISAAIDRLLTISFTYTSASGETLLRETEPYTLVCKAGHWYLYAYCLVRNDFRFFKLNRMKDLAILHQTFIRKDIQLDTLPWDKSWYQKDRLTELVILVQPSARQRIGEWFGYDVLHCCEEDEICQAVISLPEDQWLIGFLLQFGKDIEVLQPLHIRDKVKETIHHMQKIYET,not soluble
2,MGSDKIHHHHHHAGLPDNLTPVGAERAASPDGRIPAWQGGLSTAQQRLGDNGTPLDPFADEQPLYRITAANYRQYRGQLTDGQVALLKRFPASLSLPVYPTHRSVAVPDAVAASAARNAEQAQLDDQGNGVRGFTGVIAFAQPTNGLEVIWNHLTRHRNVSYSLSSDSVTPLKNGRFVLMSARQEVARPEGLANLGAGNVLYYFTYRMTAPSRLAGDAMVVHETLDQVAEPRLSWVYSASQRRVRRAPNIAYDTTGPGTAGLRTADSRDMFNGAPDRYDWKLLGKQALHVPYNCYRLASPELRYVDLIKPGHIDPAPTRYELHRVWVVEATLKPGAQHIYAKRRFYLDEDTWAILETDSYDARGELWRTSQAHGFFHPSGQVAVNAMEITYDLKSGRYHASGLINEQRRPFAFNVRTSLSYFSPGALRSFGVR,not soluble
3,MGSDKIHHHHHHANSTNTIVSTSNMASTAYTRKSATGWTYNLGGTATNMTFGKKTHYLKNYPNTTWHATKKRYIIKKNGVKYLYYYVTNGRKTAAGWIWHGYLQKKSYAHTATTTSSTGTGTYDSILKAAKTQLGKPYAYGGNGPSAFDCSGFTKYVFNQAIGQTLPRTAQAQYDSYTHVSAANAKAGDLIFFGTSASNITHCGIYLGNHKMIDAQLNGVITEATNVSWWHTVGYSRPATLS,not soluble
4,MGSDKIHHHHHHAQKKDFSYKFYGQIRTDLYYNSRANEETVDGLFYMYPKDEVFDSNGRDLNATANGSFYTLYTRLGLDVKGPKLGRAMTSAKVEADFRGSGTSYSTIRLRHAYLNLDWGRSALLLGQTWHPLFGDVSPQILNLSVGAPFQPFSRAPQIRYRYTHKGFQLTGAAIWQSQYLSQGIVGKSQTYIKNSCVPEFYLGLDYKANGWIAGAGIELLSLKPRTESKVEDQVYKVNERITTLSYEGHVKYSNKDWFVGAKTVLGSNLTQTSMLGGFGIKSIDNRTGEQKYTPIRVSSSWLNVVYGQKWKPGIFLGYVKNMGTSDALASNQVYGTGTNVDQVVTAGAELTYNVNHWKFGVEYTYTSAAYGSLYLKNGKIIDTHSVGNNRIVGVAMFMF,not soluble
5,MGSDKIHHHHHHAQKKTQKTYIPWSNGKLVVSEEGRYLKHENGTPFFWLGETGWLLPERLNRDEAEYYLEQCKRRGYNVIQVQTLNNVPSMNIYGQYSMTDGYNFKNINQKGVYGYWDHMDYIIRTAAKKGLYIGMVCIWGSPVSHGEMNVDQAKAYGKFLAERYKDEPNIIWFIGGDIRGDVKTAEWEALATSIKAIDKNHLMTFHPRGRTTSATWFNNAPWLDFNMFQSGHRRYGQRFGDGDYPIEENTEEDNWRFVERSMAMKPMKPVIDGEPIYEEIPHGLHDENELLWKDYDVRRYAYWSVFAGSFGHTYGHNSIMQFIKPGVGGAYGAKKPWYDALNDPGYNQMKYLKNLMLTFPFFERVPDQSVIAGQNGERYDRAIATRGNDYLMVYNYTGRPMEVDFSKISGAKKNAWWYTTKDGKLEYIGEFDNGVHKFQHDSGYSSGNDHVLIVVDSSKDYVKKDCYQIDTHE,not soluble
6,MGSDKIHHHHHHAQNFSDYFTNKTLRIDYLFTGNADKQSICLDELSELPVWAGRRHHLSELPLEGNGQIVMRDVASGKVIYTTSFSSLFQEWLETDEAKEVTKGFENTYLLPYPIKPAEVEITLRNNKREVSANLKHVVKPDDILIHKKGLTHITPHKYLLKSGNEEQCIDVAILAEGYTTSEMETFYKDAAIACEALFSHEPFQSMKNRFNIVAVASPSADSGVSAPKQGAWKHTAFGSHFDTFYSDRYLTTSRVKAINDALAGIPYEHIIILANTEQYGGGGIYNAFTLTTAHHPNFRPVVVHEFGHSFGGLADEYFYDEDVMNGLYPLNIEPWEQNITTRINFASKWEDMLTKTTPVPTPVADKAKYPIGVYEGGGYSAKGIYRPAFDCRMRTNEYPTFCPVCQRAIQRIIEFYTGK,not soluble
7,MGSDKIHHHHHHCEDIFNDLAVNPNQSDVNSFYTTLENCNKGILGIYGYISTPRNLGACGFGLMLTRSDEGCSVADYGVPGAYNEEFTPSYYSLVQPFQLMYTAASQANQMIESLTEIEFSNKELQDAYLGEAYFLRAFTHFFLFINYRNIPLIKELPKAPNEYKPQATPEEAWDFIIDDLIKAKDLLPDKNFWDAKNKGRVTKASAYALLGKSYLYRSGIEPKYGTSQTTYYNEAAAAFAEIINGNCGNYRLVDDYSWNFDVAHENNDESIFEVQFVGVLNTGFNPGFVDSGLFNDVRCKMCIMNRSRNSNSSAQVMHNWLYDKFVASKTVTGETDPRMFGSFVFNDNVSEIIRPKGMKVTFLEGKDWEAEMGSKEGTFGEQYELAMGYKMCSRKWLDWTLPPTDDAGGHFFNGRAQGVNWRMIRYSDVLLMYAEAVVMGGKATANITPLEAINKVRDRVGVPHVTEANMRTIEDERILELTYEGFRFFDLLRWGKVVERFRELENTDPLFKRFSRAQYMGFKENKNEWVPLPIDEVEGNPYITKNNPGW,not soluble
8,MGSDKIHHHHHHCKDNDDATGDFDPNKPVVISEFSPKEGGLGTRMLLYGENFGSDISKIKVTIGGQDSKVVGAKGKSLYCVVPAKAYDGDIKLSILNDEGEEIANTEANEKFVYQKKMLVTTFLGTMYDGNTKYDLKDGPFDDCGGFGGAVWLSFDPKNHNHLYLVGEQHPTRLIDFEKEYVSTVYSGLSKVRTICWTHEADSMIITNDQNNNDRPNNYILTRESGFKVITELTKGQNCNGAETHPINGELYFNSWNAGQVFRYDFTTQETTPLFTIQDSGWEFHIQFHPSGNYAYIVVVNQHYILRSDYDWKTKRLTTPYIVCGQQGAKDWVDGVGKKARMHAPRQGTFVKNPAYKGSSDEYDFYFCDRENHCIRILTPQGRVTTFAGRGSNGTSGYNDGDLRQEARFNHPEGIVYDEERECFFIGDRENRRIRKIGYEE,not soluble
9,MGSDKIHHHHHHCSEKTTTEIPETELKNISCSTQLVTHSSAQTRGAAPTTLNENDFVLYAFKKNGEGNFSYEEAKHETSVIDGGVWKYNAAFPVGTYKFIAFYNLDEKNQAALNTTITGISNQTWENILKSIVITHFPSATGQYHEDMNEIFCGKTTDEIDISSGIGGDDNEIKIKLTLERIVSRIDIKFIKVASDDDHIEVPYATGNIFGGTGTTSLTSLIFTSSNVPLKYNLNGENPDYVTGVQCQVTYAAPSFQYGEANADAVKALDYQPFPQNADAINNNMETNIKKGIAKGGAYFMGSYLLPFPSSSQTLNANIQLNKANQERTIKVPGFAVTSNYVSIITVRLKSSTDAGDNNNGNDDEHLFNPKSTFIVEIEKTYVGIHNTNVDVE,not soluble
10,MGSDKIHHHHHHDQEPPLYVNENDIFTSPTRIEATLNGLYAAIKNTGTKSLMGGKSYLVFDNRGDDVINISNNLVTLFNTYNMNVGITDAENADTWTYAYLAINKVNTFLQSLEGAREVAGENYDRYVQEAKFVRALAYYYLNNLYPTPYSVNPDAKSVPLRLTAEAGTENNNMPRSTVKQIYEHILSDLENISALDTEVNTYTGVTHATQAAANMLKMRVYMAMNEWDKAITAGELVTGYSLPEDVTLIYKAPYFSQESIFSLPMADTNIPNTQQSLAEYYYDGKIMLIDTKSGIMSKPDYSLATDKRIIAFKGEKDLLMKFTDAKTKLQWVPIFRYAETLLDLAECYANKAGGEATAKSLLKQVRGRSVDAATDPLNIDNLSGDALKEAIYNEKRLEFIGEGIRGIDIMRRGEHFIKVGENETINVGPSDEKYTWPIPQVELLLNKDINK,not soluble
11,MGSDKIHHHHHHDTEKKVSEEGFVFTTVKENPITSVKNQNRAGTCWCYSSYSFLESELLRMGKGEYDLSEMFTVYNTYLDRADAAVRTHGDVSFSQGGSFYDALYGMETFGLVPEEEMRPGMMYADTLSNHTELSALTDAMVAAIAKGKLRKLQSDENNAMLWKKAVAAVHQIYLGVPPEKFTYKGKEYTPKSFFESTGLKASDYVSLTSYTHHPFYTQFPLEIQDNWRHGMSYNLPLDEFMEVFDNAINTGYTIAWGSDVSESGFTRDGVAVMPDDEKVQELSGSDMAHWLKLKPEEKKLNTKPQPQKWCTQAERQLAYDNYETTDDHGMQIYGIAKDQEGNEYYMVKNSWGTNSKYNGIWYASKAFVRYKTMNIVVHKDALPKAIKAKLGIK,not soluble
